Assay results from PMC11601375 (bioRxiv, 2024).

Biological target: T1, vacuolar Qa-SNARE Vam3 (yeast, UniProt Q12241 1-283)
T1 sequence: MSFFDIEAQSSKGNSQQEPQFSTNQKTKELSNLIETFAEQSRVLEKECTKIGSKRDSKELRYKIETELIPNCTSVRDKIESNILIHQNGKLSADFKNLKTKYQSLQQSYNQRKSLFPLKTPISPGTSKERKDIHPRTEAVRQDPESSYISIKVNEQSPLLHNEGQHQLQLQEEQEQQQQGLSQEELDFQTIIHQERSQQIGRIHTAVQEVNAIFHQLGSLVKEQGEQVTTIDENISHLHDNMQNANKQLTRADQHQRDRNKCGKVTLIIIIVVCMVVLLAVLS
Assay: co-IP

binding result: binds
B1: vacuolar Qb-SNARE Vti1 (natural protein)
chain: MSSLLISYESDFKTTLEQAKASLAEAPSQPLSQRNTTLKHVEQQQDELFDLLDQMDVEVNNSIGDASERATYKAKLREWKKTIQSDIKRPLQSLVDSGDRDRLFGDLNASNIDDDQRQQLLSNHAILQKSGDRLKDASRIANETEGIGSQIMMDLRSQRETLENARQTLFQADSYVDKSIKTLKTMTRRLVANKFISYAIIAVLILLILLVLFSKFK
